In publication PMC5241874:

Substrate: O=C(O)CC(C(=O)O)C(O)C(=O)O
Test: purified protein
Format: biochemical, Homo sapiens
Conditions: no activators, 2 mM Mn2+, 3.2 mM NAD, 33 mM Tris-acetate pH 7.4, 25 °C, Hill 2.0, racemic DL-ICT varied

| Protein | K0.5 (Hill 1.0) [mM] | kcat/Km (Hill 1.0) [M⁻¹ s⁻¹] | K0.5 (Hill 1.1) [mM] | kcat/Km (Hill 1.1) [M⁻¹ s⁻¹] |
| --- | --- | --- | --- | --- |
| αγ heterodimer of human NAD-IDH (IDH3) (Homo sapiens; P51553:R136A) (protein, alpha and gamma co-expressed in E. coli BL21(DE3) from pQlinkN; gamma C-terminal TEV-His6, His6 cleaved by TEV; 80 kDa heterodimer (dimer of heterodimers at high concentration)) chain 1: TGGVQTVTLIPGDGIGPEISAAVMKIFDAAKAPIQWEERNVTAIQGPGGKWMIPSEAKESMDKNKMGLKGPLKTPIAAGHPSMNLLLRKTFDLYANVRPCVSIEGYKTPYTDVNIVTIRENTEGEYSGIEHVIVDGVVQSIKLITEGASKRIAEFAFEYARNNHRSNVTAVHKANIMRMSDGLFLQKCREVAESCKDIKFNEMYLDTVCLNMVQDPSQFDVLVMPNLYGDILSDLCAGLIGGLGVTPSGNIGANGVAIFESVHGTAPDIAGKDMANPTALLLSAVMMLRHMGLFDHAARIEAACFATIKDGKSLTKDLGGNAKCSDFTEEICRRVKDLD chain 2: FSEQTIPPSAKYGGRHTVTMIPGDGIGPELMLHVKSVFRHACVPVDFEEVHVSSNADEEDIRNAIMAIRRNRVALKGNIETNHNLPPSHKSRNNILATSLDLYANVIHCKSLPGVVTRHKDIDILIVRENTEGEYSSLEHESVAGVVESLKIITKAKSLRIAEYAFKLAQESGRKKVTAVHKANIMKLGDGLFLQCCREVAARYPQITFENMIVDNTTMQLVSRPQQFDVMVMPNLYGNIVNNVCAGLVGGPGLVAGANYGHVYAVFETATRNTGKSIANKNIANPTATLLASCMMLDHLKLHSYATSIRKAVLASMDNENMHTPDIGGQGTTSEAIQDVIRHIRVINGRAVEA | 4.51 ± 0.43 | 330 ± 10 | – | – |
| αγ heterodimer of human NAD-IDH (IDH3) (Homo sapiens; P51553:D229A) (protein, alpha and gamma co-expressed in E. coli BL21(DE3) from pQlinkN; gamma C-terminal TEV-His6, His6 cleaved by TEV; 80 kDa heterodimer (dimer of heterodimers at high concentration)) chain 1: TGGVQTVTLIPGDGIGPEISAAVMKIFDAAKAPIQWEERNVTAIQGPGGKWMIPSEAKESMDKNKMGLKGPLKTPIAAGHPSMNLLLRKTFDLYANVRPCVSIEGYKTPYTDVNIVTIRENTEGEYSGIEHVIVDGVVQSIKLITEGASKRIAEFAFEYARNNHRSNVTAVHKANIMRMSDGLFLQKCREVAESCKDIKFNEMYLDTVCLNMVQDPSQFDVLVMPNLYGDILSDLCAGLIGGLGVTPSGNIGANGVAIFESVHGTAPDIAGKDMANPTALLLSAVMMLRHMGLFDHAARIEAACFATIKDGKSLTKDLGGNAKCSDFTEEICRRVKDLD chain 2: FSEQTIPPSAKYGGRHTVTMIPGDGIGPELMLHVKSVFRHACVPVDFEEVHVSSNADEEDIRNAIMAIRRNRVALKGNIETNHNLPPSHKSRNNILRTSLDLYANVIHCKSLPGVVTRHKDIDILIVRENTEGEYSSLEHESVAGVVESLKIITKAKSLRIAEYAFKLAQESGRKKVTAVHKANIMKLGAGLFLQCCREVAARYPQITFENMIVDNTTMQLVSRPQQFDVMVMPNLYGNIVNNVCAGLVGGPGLVAGANYGHVYAVFETATRNTGKSIANKNIANPTATLLASCMMLDHLKLHSYATSIRKAVLASMDNENMHTPDIGGQGTTSEAIQDVIRHIRVINGRAVEA | – | – | 10.2 ± 0.6 | 730 ± 40 |
| αγ heterodimer of human NAD-IDH (IDH3) (Homo sapiens; P51553:Y276F) (protein, alpha and gamma co-expressed in E. coli BL21(DE3) from pQlinkN; gamma C-terminal TEV-His6, His6 cleaved by TEV; 80 kDa heterodimer (dimer of heterodimers at high concentration)) chain 1: TGGVQTVTLIPGDGIGPEISAAVMKIFDAAKAPIQWEERNVTAIQGPGGKWMIPSEAKESMDKNKMGLKGPLKTPIAAGHPSMNLLLRKTFDLYANVRPCVSIEGYKTPYTDVNIVTIRENTEGEYSGIEHVIVDGVVQSIKLITEGASKRIAEFAFEYARNNHRSNVTAVHKANIMRMSDGLFLQKCREVAESCKDIKFNEMYLDTVCLNMVQDPSQFDVLVMPNLYGDILSDLCAGLIGGLGVTPSGNIGANGVAIFESVHGTAPDIAGKDMANPTALLLSAVMMLRHMGLFDHAARIEAACFATIKDGKSLTKDLGGNAKCSDFTEEICRRVKDLD chain 2: FSEQTIPPSAKYGGRHTVTMIPGDGIGPELMLHVKSVFRHACVPVDFEEVHVSSNADEEDIRNAIMAIRRNRVALKGNIETNHNLPPSHKSRNNILRTSLDLYANVIHCKSLPGVVTRHKDIDILIVRENTEGEYSSLEHESVAGVVESLKIITKAKSLRIAEYAFKLAQESGRKKVTAVHKANIMKLGDGLFLQCCREVAARYPQITFENMIVDNTTMQLVSRPQQFDVMVMPNLFGNIVNNVCAGLVGGPGLVAGANYGHVYAVFETATRNTGKSIANKNIANPTATLLASCMMLDHLKLHSYATSIRKAVLASMDNENMHTPDIGGQGTTSEAIQDVIRHIRVINGRAVEA | 14.8 ± 0.5 | 250 ± 10 | – | – |
| αγ heterodimer of human NAD-IDH (IDH3) (Homo sapiens; P51553:Y174F) (protein, alpha and gamma co-expressed in E. coli BL21(DE3) from pQlinkN; gamma C-terminal TEV-His6, His6 cleaved by TEV; 80 kDa heterodimer (dimer of heterodimers at high concentration)) chain 1: TGGVQTVTLIPGDGIGPEISAAVMKIFDAAKAPIQWEERNVTAIQGPGGKWMIPSEAKESMDKNKMGLKGPLKTPIAAGHPSMNLLLRKTFDLYANVRPCVSIEGYKTPYTDVNIVTIRENTEGEYSGIEHVIVDGVVQSIKLITEGASKRIAEFAFEYARNNHRSNVTAVHKANIMRMSDGLFLQKCREVAESCKDIKFNEMYLDTVCLNMVQDPSQFDVLVMPNLYGDILSDLCAGLIGGLGVTPSGNIGANGVAIFESVHGTAPDIAGKDMANPTALLLSAVMMLRHMGLFDHAARIEAACFATIKDGKSLTKDLGGNAKCSDFTEEICRRVKDLD chain 2: FSEQTIPPSAKYGGRHTVTMIPGDGIGPELMLHVKSVFRHACVPVDFEEVHVSSNADEEDIRNAIMAIRRNRVALKGNIETNHNLPPSHKSRNNILRTSLDLYANVIHCKSLPGVVTRHKDIDILIVRENTEGEFSSLEHESVAGVVESLKIITKAKSLRIAEYAFKLAQESGRKKVTAVHKANIMKLGDGLFLQCCREVAARYPQITFENMIVDNTTMQLVSRPQQFDVMVMPNLYGNIVNNVCAGLVGGPGLVAGANYGHVYAVFETATRNTGKSIANKNIANPTATLLASCMMLDHLKLHSYATSIRKAVLASMDNENMHTPDIGGQGTTSEAIQDVIRHIRVINGRAVEA | – | – | 8.80 ± 0.54 | 270 ± 10 |
| αγ heterodimer of human NAD-IDH (IDH3) (Homo sapiens; P50213:Y255F) (protein, alpha and gamma co-expressed in E. coli BL21(DE3) from pQlinkN; gamma C-terminal TEV-His6, His6 cleaved by TEV; 80 kDa heterodimer (dimer of heterodimers at high concentration)) chain 1: TGGVQTVTLIPGDGIGPEISAAVMKIFDAAKAPIQWEERNVTAIQGPGGKWMIPSEAKESMDKNKMGLKGPLKTPIAAGHPSMNLLLRKTFDLYANVRPCVSIEGYKTPYTDVNIVTIRENTEGEYSGIEHVIVDGVVQSIKLITEGASKRIAEFAFEYARNNHRSNVTAVHKANIMRMSDGLFLQKCREVAESCKDIKFNEMYLDTVCLNMVQDPSQFDVLVMPNLFGDILSDLCAGLIGGLGVTPSGNIGANGVAIFESVHGTAPDIAGKDMANPTALLLSAVMMLRHMGLFDHAARIEAACFATIKDGKSLTKDLGGNAKCSDFTEEICRRVKDLD chain 2: FSEQTIPPSAKYGGRHTVTMIPGDGIGPELMLHVKSVFRHACVPVDFEEVHVSSNADEEDIRNAIMAIRRNRVALKGNIETNHNLPPSHKSRNNILRTSLDLYANVIHCKSLPGVVTRHKDIDILIVRENTEGEYSSLEHESVAGVVESLKIITKAKSLRIAEYAFKLAQESGRKKVTAVHKANIMKLGDGLFLQCCREVAARYPQITFENMIVDNTTMQLVSRPQQFDVMVMPNLYGNIVNNVCAGLVGGPGLVAGANYGHVYAVFETATRNTGKSIANKNIANPTATLLASCMMLDHLKLHSYATSIRKAVLASMDNENMHTPDIGGQGTTSEAIQDVIRHIRVINGRAVEA | – | – | 14.5 ± 0.9 | 46 ± 2 |
| αγ heterodimer of human NAD-IDH (IDH3) (Homo sapiens; P51553:R167A) (protein, alpha and gamma co-expressed in E. coli BL21(DE3) from pQlinkN; gamma C-terminal TEV-His6, His6 cleaved by TEV; 80 kDa heterodimer (dimer of heterodimers at high concentration)) chain 1: TGGVQTVTLIPGDGIGPEISAAVMKIFDAAKAPIQWEERNVTAIQGPGGKWMIPSEAKESMDKNKMGLKGPLKTPIAAGHPSMNLLLRKTFDLYANVRPCVSIEGYKTPYTDVNIVTIRENTEGEYSGIEHVIVDGVVQSIKLITEGASKRIAEFAFEYARNNHRSNVTAVHKANIMRMSDGLFLQKCREVAESCKDIKFNEMYLDTVCLNMVQDPSQFDVLVMPNLYGDILSDLCAGLIGGLGVTPSGNIGANGVAIFESVHGTAPDIAGKDMANPTALLLSAVMMLRHMGLFDHAARIEAACFATIKDGKSLTKDLGGNAKCSDFTEEICRRVKDLD chain 2: FSEQTIPPSAKYGGRHTVTMIPGDGIGPELMLHVKSVFRHACVPVDFEEVHVSSNADEEDIRNAIMAIRRNRVALKGNIETNHNLPPSHKSRNNILRTSLDLYANVIHCKSLPGVVTRHKDIDILIVAENTEGEYSSLEHESVAGVVESLKIITKAKSLRIAEYAFKLAQESGRKKVTAVHKANIMKLGDGLFLQCCREVAARYPQITFENMIVDNTTMQLVSRPQQFDVMVMPNLYGNIVNNVCAGLVGGPGLVAGANYGHVYAVFETATRNTGKSIANKNIANPTATLLASCMMLDHLKLHSYATSIRKAVLASMDNENMHTPDIGGQGTTSEAIQDVIRHIRVINGRAVEA | – | – | 8.57 ± 0.42 | 260 ± 10 |
| αγ heterodimer of human NAD-IDH (IDH3) (Homo sapiens; P51553:K190A) (protein, alpha and gamma co-expressed in E. coli BL21(DE3) from pQlinkN; gamma C-terminal TEV-His6, His6 cleaved by TEV; 80 kDa heterodimer (dimer of heterodimers at high concentration)) chain 1: TGGVQTVTLIPGDGIGPEISAAVMKIFDAAKAPIQWEERNVTAIQGPGGKWMIPSEAKESMDKNKMGLKGPLKTPIAAGHPSMNLLLRKTFDLYANVRPCVSIEGYKTPYTDVNIVTIRENTEGEYSGIEHVIVDGVVQSIKLITEGASKRIAEFAFEYARNNHRSNVTAVHKANIMRMSDGLFLQKCREVAESCKDIKFNEMYLDTVCLNMVQDPSQFDVLVMPNLYGDILSDLCAGLIGGLGVTPSGNIGANGVAIFESVHGTAPDIAGKDMANPTALLLSAVMMLRHMGLFDHAARIEAACFATIKDGKSLTKDLGGNAKCSDFTEEICRRVKDLD chain 2: FSEQTIPPSAKYGGRHTVTMIPGDGIGPELMLHVKSVFRHACVPVDFEEVHVSSNADEEDIRNAIMAIRRNRVALKGNIETNHNLPPSHKSRNNILRTSLDLYANVIHCKSLPGVVTRHKDIDILIVRENTEGEYSSLEHESVAGVVESLAIITKAKSLRIAEYAFKLAQESGRKKVTAVHKANIMKLGDGLFLQCCREVAARYPQITFENMIVDNTTMQLVSRPQQFDVMVMPNLYGNIVNNVCAGLVGGPGLVAGANYGHVYAVFETATRNTGKSIANKNIANPTATLLASCMMLDHLKLHSYATSIRKAVLASMDNENMHTPDIGGQGTTSEAIQDVIRHIRVINGRAVEA | – | – | 8.12 ± 0.16 | 90 ± 2 |
| αγ heterodimer of human NAD-IDH (IDH3) (Homo sapiens; P51553:R311A) (protein, alpha and gamma co-expressed in E. coli BL21(DE3) from pQlinkN; gamma C-terminal TEV-His6, His6 cleaved by TEV; 80 kDa heterodimer (dimer of heterodimers at high concentration)) chain 1: TGGVQTVTLIPGDGIGPEISAAVMKIFDAAKAPIQWEERNVTAIQGPGGKWMIPSEAKESMDKNKMGLKGPLKTPIAAGHPSMNLLLRKTFDLYANVRPCVSIEGYKTPYTDVNIVTIRENTEGEYSGIEHVIVDGVVQSIKLITEGASKRIAEFAFEYARNNHRSNVTAVHKANIMRMSDGLFLQKCREVAESCKDIKFNEMYLDTVCLNMVQDPSQFDVLVMPNLYGDILSDLCAGLIGGLGVTPSGNIGANGVAIFESVHGTAPDIAGKDMANPTALLLSAVMMLRHMGLFDHAARIEAACFATIKDGKSLTKDLGGNAKCSDFTEEICRRVKDLD chain 2: FSEQTIPPSAKYGGRHTVTMIPGDGIGPELMLHVKSVFRHACVPVDFEEVHVSSNADEEDIRNAIMAIRRNRVALKGNIETNHNLPPSHKSRNNILRTSLDLYANVIHCKSLPGVVTRHKDIDILIVRENTEGEYSSLEHESVAGVVESLKIITKAKSLRIAEYAFKLAQESGRKKVTAVHKANIMKLGDGLFLQCCREVAARYPQITFENMIVDNTTMQLVSRPQQFDVMVMPNLYGNIVNNVCAGLVGGPGLVAGANYGHVYAVFETATANTGKSIANKNIANPTATLLASCMMLDHLKLHSYATSIRKAVLASMDNENMHTPDIGGQGTTSEAIQDVIRHIRVINGRAVEA | 19.3 ± 1.0 | 210 ± 10 | – | – |
